{
  "source": "paper PMC5573083",
  "about": "“Structural and Functional Analysis of the Escherichia coli Acid-Sensing Histidine Kinase EvgS” (Journal of Bacteriology, 2017)",
  "proteins": {"B1": {"name": "EvgS-Cyt (entire cytoplasmic region of the Escherichia coli histidine kinase EvgS, residues 553 to 1193) (domain or fragment, UniProt P30855 553-1193, looked up)", "chain": "WGFYLLRSVRRRKVIQGDLENQISFRKALSDSLPNPTYVVNWQGNVISHNSAFEHYFTADYYKNAMLPLENSDSPFKDVFSNAHEVTAETKENRTIYTQVFEIDNGIEKRCINHWHTLCNLPASDNAVYICGWQDITETRDLINALEVEKNKAIKATVAKSQFLATMSHEIRTPISSIMGFLELLSGSGLSKEQRVEAISLAYATGQSLLGLIGEILDVDKIESGNYQLQPQWVDIPTLVQNTCHSFGAIAASKSIALSCSSTFPEHYLVKIDPQAFKQVLSNLLSNALKFTTEGAVKITTSLGHIDDNHAVIKMTIMDSGSGLSQEEQQQLFKRYSQTSAGRQQTGSGLGLMICKELIKNMQGDLSLESHPGIGTTFTITIPVEISQQVATVEAKAEQPITLPEKLSILIADDHPTNRLLLKRQLNLLGYDVDEATDGVQALHKVSMQHYDLLITDVNMPNMDGFELTRKLREQNSSLPIWGLTANAQANEREKGLSCGMNLCLFKPLTLDVLKTHLSQLHQVAHIAPQYRHLDIEALKNNTANDLQLMQEILMTFQHETHKDLPAAFQALEAGDNRTFHQCIHRIHGAANILNLQKLINISHQLEITPVSDDSKPEILQLLNSVKEHIAELDQEIAVFC", "notes": "EvgS sensor histidine kinase, Escherichia coli, cytoplasmic domains comprising amino acid residues 553 to 1193; expected monomer mass printed as 72.3 kDa; Amplified from pBADEvgS and cloned NdeI-HindIII into a modified pET41c in which the GST tag is replaced by a C-terminal His8 tag; By the forward primer a start methionine precedes R553 (ATGCGCTCAGTTCGTCGTCGT); No cleavage of the tag is …"}},
  "target": "the molecule itself",
  "experiment": "AUC; purified protein dialysed against 50 mM Tris-HCl pH 7; OD280 of 1 (printed as 0.1 μM protein); 40,000 rpm, 20°C; 200 scans; analysed with Sedfit; monomer to dimer",
  "data": [
    {"protein": "B1", "values": [
      {"measurement": "stoichiometry N", "value": 2}
    ]}
  ]
}
